Key:
[1] = target: Monoscaffoldin (truncated CipA), Cohesin 2-CBM3a (UniProt Q06851)
[2] = target: T1, Monoscaffoldin (truncated CipA), Cohesin 2-CBM3a, Q06851
T1 chain: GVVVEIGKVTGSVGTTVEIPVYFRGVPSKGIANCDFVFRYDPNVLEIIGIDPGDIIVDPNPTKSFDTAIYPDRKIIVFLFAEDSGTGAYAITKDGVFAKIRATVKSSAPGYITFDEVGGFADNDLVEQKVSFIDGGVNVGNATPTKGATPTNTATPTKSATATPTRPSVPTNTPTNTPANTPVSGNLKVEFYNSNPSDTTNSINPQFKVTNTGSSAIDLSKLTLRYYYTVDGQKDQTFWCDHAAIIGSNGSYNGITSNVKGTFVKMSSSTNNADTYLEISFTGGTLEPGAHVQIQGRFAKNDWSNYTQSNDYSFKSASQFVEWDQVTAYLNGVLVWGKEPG

Chimera1 of CbhA (CBM4-Ig-GH9-linker1-CBM3b-Doc)
yield of soluble sugar from Avicel after 119 hour digestion, with the adaptor relative to without it [1]: increased by factors of 1.55 and 1.73

B1: wild-type CbhA from Clostridium thermocellum (CBM4-Ig-GH9-linker3-CBM3b-Doc) (protein)
chain: MKFRRSICTAVLLAVLLTLLVPTSVFALEDNSSTLPPYKNDLLYERTFDEGLCYPWHTCEDSGGKCSFDVVDVPGQPGNKAFAVTVLDKGQNRWSVQMRHRGLTLEQGHTYRVRLKIWADASCKVYIKIGQMGEPYAEYWNNKWSPYTLTAGKVLEIDETFVMDKPTDDTCEFTFHLGGELAATPPYTVYLDDVSLYDPEYTKPVEYILPQPDVRVNQVGYLPEGKKVATVVCNSTQPVKWQLKNAAGVVVLEGYTEPKGLDKDSQDYVHWLDFSDFATEGIGYYFELPTVNSPTNYSHPFDIRKDIYTQMKYDALAFFYHKRSGIPIEMPYAGGEQWTRPAGHIGIEPNKGDTNVPTWPQDDEYAGIPQKNYTKDVTGGWYDAGDHGKYVVNGGIAVWTLMNMYERAKIRGLDNWGPYRDGGMNIPEQNNGYPDILDEARWEIEFFKKMQVTEKEDPSIAGMVHHKIHDFRWTALGMLPHEDPQPRYLRPVSTAATLNFAATLAQSARLWKDYDPTFAADCLEKAEIAWQAALKHPDIYAEYTPGSGGPGGGPYNDDYVGDEFYWAACELYVTTGKDEYKNYLMNSPHYLEMPAKMGENGGANGEDNGLWGCFTWGTTQGLGTITLALVENGLPATDIQKARNNIAKAADRWLENIEEQGYRLPIKQAEDERGGYPWGSNSFILNQMIVMGYAYDFTGDSKYLDGMFDGISYLLGRNAMDQSYVTGYGERPLQNPHDRFWTPQTSKRFPAPPPGIISGGPNSRFEDPTINAAVKKDTPPQKCFIDHTDSWSTNEITVNWNAPFAWVTAYLDEQYTDSETDKVTIDSPVAGERFEAGKDINISATVKSKTPVSKVEFYNGDTLISSDTTAPYTAKITGAAVGAYNLKAVAVLSDGRRIESPVTPVLVKVIVKPTVKLTAPKSNVVAYGNEFLKITATASDSDGKISRVDFLVDGEVIGSDREAPYEYEWKAVEGNHEISVIAYDDDDAASTPDSVKIFVKQARDVKVQYLCENTQTSTQEIKGKFNIVNTGNRDYSLKDIVLRYYFTKEHNSQLQFICYYTPIGSGNLIPSFGGSGDEHYLQLEFKDVKLPAGGQTGEIQFVIRYADNSFHDQSNDYSFDPTIKAFQDYGKVTLYKNGELVWGTPPGGTEPEEPEEPAIVYGDCNDDGKVNSTDVAVMKRYLKKENVNINLDNADVNADGKVNSTDFSILKRYVMKNIEELPYR
yield of soluble sugar from Avicel after 119 hour digestion, with the adaptor relative to without it [2]: increased by a factor of only 1.09

B2: Chimera2 of CbhA (CBM4-Ig-GH9-linker2-CBM3b-Doc) (protein)
chain: LEDNSSTLPPYKNDLLYERTFDEGLCYPWHTCEDSGGKCSFDVVDVPGQPGNKAFAVTVLDKGQNRWSVQMRHRGLTLEQGHTYRVRLKIWADASCKVYIKIGQMGEPYAEYWNNKWSPYTLTAGKVLEIDETFVMDKPTDDTCEFTFHLGGELAATPPYTVYLDDVSLYDPEYTKPVEYILPQPDVRVNQVGYLPEGKKVATVVCNSTQPVKWQLKNAAGVVVLEGYTEPKGLDKDSQDYVHWLDFSDFATEGIGYYFELPTVNSPTNYSHPFDIRKDIYTQMKYDALAFFYHKRSGIPIEMPYAGGEQWTRPAGHIGIEPNKGDTNVPTWPQDDEYAGIPQKNYTKDVTGGWYDAGDHGKYVVNGGIAVWTLMNMYERAKIRGLDNWGPYRDGGMNIPEQNNGYPDILDEARWEIEFFKKMQVTEKEDPSIAGMVHHKIHDFRWTALGMLPHEDPQPRYLRPVSTAATLNFAATLAQSARLWKDYDPTFAADCLEKAEIAWQAALKHPDIYAEYTPGSGGPGGGPYNDDYVGDEFYWAACELYVTTGKDEYKNYLMNSPHYLEMPAKMGENGGANGEDNGLWGCFTWGTTQGLGTITLALVENGLPATDIQKARNNIAKAADRWLENIEEQGYRLPIKQAEDERGGYPWGSNSFILNQMIVMGYAYDFTGDSKYLDGMFDGISYLLGRNAMDQSYVTGYGERPLQNPHDRFWTPQTSKRFPAPPPGIISGGPNSRFEDPTINAAVKKDTPPQKCFIDHTDSWSTNEITVNWNAPFAWVTAYLDEQYTDSETDTPTPTATPAPTVTPTPTPAPTPTPTPTPTATPTPTPTPTPTATPTVTATPTPTPSSTPVKVQYLCENTQTSTQEIKGKFNIVNTGNRDYSLKDIVLRYYFTKEHNSQLQFICYYTPIGSGNLIPSFGGSGDEHYLQLEFKDVKLPAGGQTGEIQFVIRYADNSFHDQSNDYSFDPTIKAFQDYGKVTLYKNGELVWGTPPGGTEPEEPEEPAIVYGDCNDDGKVNSTDVAVMKRYLKKENVNINLDNADVNADGKVNSTDFSILKRYVMKNIEELPYR
yield of soluble sugar from Avicel after 119 hour digestion, with the adaptor relative to without it [2]: increased by factors of 1.55 and 1.73

From patent US20140017734
